From article PMC8105673 come the findings set out here.

The target in this test is scavenger receptor CD36 (human (endogenous in THP-1)) (UniProt P16671). As to the kind of experiment: flow cytometry on cells; THP-1-derived M1 macrophages pre-incubated with 50 μM HSAUT, HSA_(HOCl) or buffer for 15 min at 0 °C (surface binding, no internalization), then stained with a PE-conjugated anti-CD36 blocking antibody; binding of HSA read indirectly as loss of antibody staining. (A flow cytometer gives signals particle by particle.)
UniProt P16671, sequence (P16671 whole entry): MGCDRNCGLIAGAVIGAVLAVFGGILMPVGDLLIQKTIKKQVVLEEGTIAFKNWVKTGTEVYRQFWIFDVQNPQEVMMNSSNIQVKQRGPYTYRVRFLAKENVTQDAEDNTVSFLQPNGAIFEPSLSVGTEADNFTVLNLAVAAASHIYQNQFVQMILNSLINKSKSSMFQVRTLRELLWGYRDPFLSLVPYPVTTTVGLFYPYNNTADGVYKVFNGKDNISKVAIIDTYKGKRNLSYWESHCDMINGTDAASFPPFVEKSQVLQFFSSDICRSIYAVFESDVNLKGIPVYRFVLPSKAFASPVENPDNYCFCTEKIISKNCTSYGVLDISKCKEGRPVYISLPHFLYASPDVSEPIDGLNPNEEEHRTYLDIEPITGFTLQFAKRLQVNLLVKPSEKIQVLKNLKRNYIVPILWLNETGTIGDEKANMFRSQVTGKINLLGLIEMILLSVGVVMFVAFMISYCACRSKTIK

In turn, “HOCl-modified human serum albumin (from UniProt P02768 25-609) (natural protein)” yielded a reduction of the binding of anti-CD36 antibody to the cells of 30%.
